Legend:
[1] = system: PEX5–GFP in YG hydrogel; assay: YG hydrogel release assay, PEX5–GFP (Fig. 6d); format: biochemical; settings: fourfold excess of PEX39
Description: YG hydrogels were prepared in a glass-bottomed plate as described earlier and equilibrated for 3 h at RT in Assay Buffer containing 0.5 µM PEX7–GFP or PEX5–GFP with or without PTS2 peptide and receptor at the concentrations specified in the text. Following the initial incubation, the hydrogels were imaged on a Nikon A1R point-scanning confocal system, as described earlier, with a Nikon ×10 0.45 NA Plan Apo air objective, a pinhole dilated to 1.4 Airy units and a pixel size of 2 µm. A solution of purified PEX39 was then spiked into each reaction and the hydrogels imaged every 2 min for an additional 1 h at RT.
For the PEX7-release assay from YG hydrogels, the total fluorescence within a 30-µm-wide band in the gel extending for 150 µm from the gel edge into the gel was measured at each time point. This distance was sufficient to fully encompass the permeation front of each fluorescent species. The resulting values were then normalized to the total fluorescence inside the gel at the start of the experiment and plotted as a function of time.

[2] = system: PEX7–GFP influx into YG hydrogel; assay: Influx of PEX7–GFP into YG hydrogel in the presence of PEX39 (Fig. 6f-i); format: biochemical, yeast; settings: for Percent PEX7-GFP influx (+ PTS2 peptide + PEX5-21) / Percent PEX7-GFP influx (+ PTS2 peptide + PEX5S) / Percent PEX7-GFP influx: 60 min; for Percent PEX7-GFP influx: PEX7-GFP without PTS2 peptide/PEX5
Description: Fig. 6 PEX39 can extract PEX7 from the YG phase. a, YG hydrogels were prepared in a glass-bottomed dish and pre-equilibrated with PEX7–GFP. PEX39 was then added to the buffer and a point-scanning confocal microscope was used to follow the PEX7–GFP fluorescence over time. b, PEX7–GFP signal in the gel over time at the indicated molar ratios of wild-type PEX39 (relative to PEX7). The mean (bold line) and range (shading) of three experiments are shown. c, As in b using a fourfold excess of wild-type (WT) PEX39 or mutants harbouring alanines in place of the APH (∆APH), the RPWE motif (∆RPWE) or both (∆APH + ∆RPWE). d, As in b using PEX7–GFP or PEX5–GFP and a fourfold excess of wild-type PEX39. e, As in b using a fourfold excess of PTS2 peptide and the PEX7-binding chimaeric receptor PEX5-21 (left) or PTS2 peptide and the non-PEX7-binding receptor isoform PEX5S (right). Wild-type PEX39 was titrated as indicated. f, YG hydrogel droplets were incubated with PEX7–GFP in the presence of PEX39. The effect of PEX39 on the influx of PEX7–GFP into the gel was then assessed using a point-scanning confocal microscope. g, PEX7–GFP influx in the presence of the indicated molar ratios of wild-type PEX39 (relative to PEX7) with or without a fourfold excess of PTS2 peptide and either PEX5S or PEX5-21. The mean (bars) and individual values (circles) of three experiments are shown. h, As in g using PEX7–GFP or PEX5–GFP and the indicated molar ratios of wild-type PEX39. i, As in g using wild-type PEX39 or the indicated mutants. Source numerical data are provided. Source data
A solution of the purified wild-type YG-domain polypeptide (or the variant lacking the KPWE motif) was concentrated to 2 mM in 50 mM HEPES·NaOH pH 7.8 at RT, 2 M urea and 2 mM TCEP. Aliquots of 2 µl were then spotted on the bottom of multiple wells of a 96-well glass-bottomed plate (Cellvis, P96-1.5H-N), which was then sealed with a gas-impermeable AlumaSeal II film (Hampton Research, HR8-069) to prevent desiccation and incubated at RT for 24 h. Before each assay, the resulting gels were equilibrated overnight at RT in a 100-fold excess of Assay Buffer (25 mM HEPES·NaOH pH 7.8 at RT, 150 mM NaCl and 1 mM TCEP). A 0.5 µM solution of fluorescently labelled protein in Assay Buffer was then added to the samples, with or without additional components at the concentrations indicated in the text, and incubated at RT. Gels were imaged at the times indicated in the text using a Nikon A1R point-scanning confocal system consisting of an inverted Nikon Eclipse Ti microscope and a Nikon ×20 0.75 NA Plan Apo air objective. The objective was centred on the gel edge and focus was maintained 5 µm above the glass surface using the Nikon Perfect Focus System. Fluorescence was excited through a 405/488/561/647 quad-band dichroic (Chroma), using a 488-nm solid-state laser (Coherent) and a galvano scanner. A 50-nm emission band was collected on a gallium arsenide phosphide detector, using an ET525/50m (525 ± 25 nm) single-band bandpass filter (Chroma) and a pinhole dilated to 0.9 Airy units. Images were acquired using the Nikon NIS-Elements software with a pixel size of 1 µm and a 12-bit digitizer. Imaging parameters were configured to maximize the SNR while avoiding saturation. All samples intended to be compared were imaged using identical acquisition settings.

[3] = system: yeast PEX7; assay: Bead-binding assay: PEX39 and PEX7 (Fig. 5c, Extended Data Fig. 9a); parameters: species or system yeast (S. cerevisiae); settings: PEX39-coated beads
Source text: Cysteine-containing peptides were covalently conjugated to thiol-reactive SulfoLink coupling resin (Thermo Fisher, catalogue number 20401) according to the manufacturer’s instructions. The prepared beads were then mixed with Assay Buffer containing the fluorescently labelled protein as well as additional components indicated in the text, and the resulting bead suspensions were transferred to a 384-well glass-bottomed plate (Cellvis, P384-1.5H-N). GST-fusion proteins were instead mixed with glutathione agarose 4B (Prometheus, 20-543) in Assay Buffer containing the fluorescently labelled protein and additional components indicated in the text; the resulting bead suspensions were then transferred to a glass-bottomed plate as above. The plates were incubated at RT for the durations specified in the text and directly imaged on the spinning-disk confocal platform described earlier for peroxisomal import reactions in Xenopus egg extract. Note that imaging the beads directly in the binding reaction preserves the equilibrium and thereby allows even weak interactions to be detected. Fluorescence was collected through a Nikon ×10 0.45 NA Plan Apo air objective, and images were acquired using the Nikon NIS-Elements software and a 16-bit digitizer without binning. Imaging parameters were configured to maximize the SNR while avoiding saturation. […]

[4] = system: PEX7–receptor–cargo complex on PEX39-coated beads; assay: Bead-binding assay: recruitment of PEX7–receptor–cargo complex to PEX39-coated beads (Fig. 7d, 8a); parameters: species or system yeast (S. cerevisiae); settings: no peptide, Fig. 7d
Source text: Cysteine-containing peptides were covalently conjugated to thiol-reactive SulfoLink coupling resin (Thermo Fisher, catalogue number 20401) according to the manufacturer’s instructions. The prepared beads were then mixed with Assay Buffer containing the fluorescently labelled protein as well as additional components indicated in the text, and the resulting bead suspensions were transferred to a 384-well glass-bottomed plate (Cellvis, P384-1.5H-N). GST-fusion proteins were instead mixed with glutathione agarose 4B (Prometheus, 20-543) in Assay Buffer containing the fluorescently labelled protein and additional components indicated in the text; the resulting bead suspensions were then transferred to a glass-bottomed plate as above. The plates were incubated at RT for the durations specified in the text and directly imaged on the spinning-disk confocal platform described earlier for peroxisomal import reactions in Xenopus egg extract. Note that imaging the beads directly in the binding reaction preserves the equilibrium and thereby allows even weak interactions to be detected. Fluorescence was collected through a Nikon ×10 0.45 NA Plan Apo air objective, and images were acquired using the Nikon NIS-Elements software and a 16-bit digitizer without binning. Imaging parameters were configured to maximize the SNR while avoiding saturation. Samples intended to be compared were imaged using identical acquisition settings.

B1: PEX39 (WT): PEX39 from S. cerevisiae (GenBank accession no. NP_012546.4) (protein)
chain: MAAGGELSYEELLDHILNNKPIPNIVEVPNVTLDEGLASTPSLRPRPRPWEGQLQHQSHQGSLDKPNISLDIDQESLEGMTSLTRLSECYDIQSKLQINDSDNDNDDNNNDNNKGDGNDDDNNTVTANPTAR
modifications: left off: GST, N-terminal, cleaved
[1]
  Extraction of PEX5–GFP from YG hydrogel: unable to extract PEX5–GFP from the hydrogel
[2]; PEX7–GFP alone or with PTS2 peptide and PEX5S
  Effect on influx of PEX7–GFP into YG hydrogel: blocked the influx of PEX7–GFP alone as well as PEX7–GFP in the presence of a PTS2 peptide and PEX5S
[2]; PEX7–GFP in complex with PTS2 peptide and PEX5-21
  Effect on influx of PEX7–GFP into YG hydrogel, PEX5-21 complex: much less inhibitory
[2]; PEX39 1×, replicate 1
  Percent PEX7-GFP influx (+ PTS2 peptide + PEX5-21): 66.880%
  Percent PEX7-GFP influx (+ PTS2 peptide + PEX5S): 23.191%
  Percent PEX7-GFP influx: 49.645%
[2]; PEX39 1×, replicate 2
  Percent PEX7-GFP influx (+ PTS2 peptide + PEX5-21): 83.899%
  Percent PEX7-GFP influx (+ PTS2 peptide + PEX5S): 21.558%
  Percent PEX7-GFP influx: 60.527%
[2]; PEX39 1×, replicate 3
  Percent PEX7-GFP influx (+ PTS2 peptide + PEX5-21): 114.523%
  Percent PEX7-GFP influx (+ PTS2 peptide + PEX5S): 32.481%
  Percent PEX7-GFP influx: 62.401%
[2]; PEX39 2×, replicate 1
  Percent PEX7-GFP influx (+ PTS2 peptide + PEX5-21): 50.795%
  Percent PEX7-GFP influx (+ PTS2 peptide + PEX5S): 5.154%
  Percent PEX7-GFP influx: 14.576%
[2]; PEX39 2×, replicate 2
  Percent PEX7-GFP influx (+ PTS2 peptide + PEX5-21): 68.223%
  Percent PEX7-GFP influx (+ PTS2 peptide + PEX5S): 5.013%
  Percent PEX7-GFP influx: 15.433%
[2]; PEX39 2×, replicate 3
  Percent PEX7-GFP influx (+ PTS2 peptide + PEX5-21): 111.257%
  Percent PEX7-GFP influx (+ PTS2 peptide + PEX5S): 4.961%
  Percent PEX7-GFP influx: 14.730%
[2]; PEX39 4×, replicate 1
  Percent PEX7-GFP influx (+ PTS2 peptide + PEX5-21): 53.842%
  Percent PEX7-GFP influx (+ PTS2 peptide + PEX5S): 2.693%
[2]; PEX39 4×, replicate 2
  Percent PEX7-GFP influx (+ PTS2 peptide + PEX5-21): 47.057%
  Percent PEX7-GFP influx (+ PTS2 peptide + PEX5S): 2.263%
[2]; PEX39 4×, replicate 3
  Percent PEX7-GFP influx (+ PTS2 peptide + PEX5-21): 58.495%
  Percent PEX7-GFP influx (+ PTS2 peptide + PEX5S): 2.329%
[2]; PEX39 at 4× molar ratio, replicate 1
  Percent PEX7-GFP influx: 7.357%
[2]; PEX39 at 4× molar ratio, replicate 2
  Percent PEX7-GFP influx: 5.802%
[2]; PEX39 at 4× molar ratio, replicate 3
  Percent PEX7-GFP influx: 7.696%
[3]
  Recruitment / binding of PEX7 in words: could recruit PEX7–GFP
[4]
  Recruitment of PEX7–PEX5-21–PTS2–GFP complex to PEX39-coated beads: could be recruited to beads coated with wild-type PEX39
